In this test the target is T1, Shiga toxin 2 (E. coli (Shiga toxin-producing, STEC)).
T1 construct: source: similarly expressed and purified as previously described [29]; copies: + 5
As to the kind of experiment: pull-down. The conditions noted are these: both partners purified.

B1: nanobody G1 (NG1), biotinylated (VHH)
VHH: QVQLVESGGGLVQPGESLRLSCVASASTFSTSLMGWVRQAPGKGLESVAEVRTTGGTFYAKSVAGRFTISRDNAKNTLYLQMNSLKAEDTGVYYCTAGAGPIATRYRGQGTQVTVSS
notes: also called B2; source: E. coli SHuffle T7, purified (Ni-NTA IMAC)
For the molecule B1, the binding result was “binds”.

The record behind these values is article PMC12730240 (Biosensors, 2025).
